# Measured values published in PMC2173952.
# Assays:
# [1] = target: cpSRP54-his (A. thaliana) (UniProt P37107); assay: co-IP
# [2] = target: Trx-cpFtsY (UniProt O80842); assay: pull-down
# UniProt O80842, sequence (O80842 41-366): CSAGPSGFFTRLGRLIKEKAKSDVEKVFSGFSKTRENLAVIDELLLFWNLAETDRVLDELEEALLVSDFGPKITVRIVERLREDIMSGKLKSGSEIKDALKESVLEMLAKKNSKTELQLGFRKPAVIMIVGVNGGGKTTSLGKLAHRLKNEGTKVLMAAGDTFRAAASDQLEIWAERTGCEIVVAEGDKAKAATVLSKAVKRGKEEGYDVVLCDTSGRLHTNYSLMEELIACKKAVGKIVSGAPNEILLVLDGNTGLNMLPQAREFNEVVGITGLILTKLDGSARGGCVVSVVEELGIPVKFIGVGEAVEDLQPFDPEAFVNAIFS
# UniProt P37107, sequence (P37107 76-564): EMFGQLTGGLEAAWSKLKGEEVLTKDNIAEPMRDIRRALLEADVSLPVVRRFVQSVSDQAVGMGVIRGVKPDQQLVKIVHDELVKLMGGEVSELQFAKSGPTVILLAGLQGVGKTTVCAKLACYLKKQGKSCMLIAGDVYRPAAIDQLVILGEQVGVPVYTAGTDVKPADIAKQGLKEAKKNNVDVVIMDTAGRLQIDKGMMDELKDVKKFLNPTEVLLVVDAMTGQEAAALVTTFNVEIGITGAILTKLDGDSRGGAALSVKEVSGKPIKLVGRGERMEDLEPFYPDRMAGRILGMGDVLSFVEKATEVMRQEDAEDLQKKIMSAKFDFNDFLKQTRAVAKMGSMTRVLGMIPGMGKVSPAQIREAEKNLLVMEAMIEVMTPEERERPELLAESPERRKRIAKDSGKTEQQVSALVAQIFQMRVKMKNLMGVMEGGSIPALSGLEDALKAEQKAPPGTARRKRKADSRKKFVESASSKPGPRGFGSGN
substance,measurement,setting,value
ALB3 (from UniProt Q8LBP4 57-462) (natural protein),fold change of the coprecipitate with cpFtsY added against cpSRP alone,[1],> 2 fold
same,fold change of coprecipitated ALB3 with cpSRP added against cpFtsY alone,[2],> 6 fold
